Data taken from patent US20130209454A1 (CALIFORNIA INSTITUTE OF TECHNOLOGY, published 2013).
Where two headings read alike, the source gives them in different places.

What was measured:
Assay in all cases: cell-based or functional assay
[1] = target: HIV-1 Env of strain 3016.v5.c45 (HIV-1)
[2] = target: HIV-1 Env of strain C2101.c01 (HIV-1)
[3] = target: HIV-1 Env of strain CAP45.2.00.G3 (HIV-1)
[4] = target: HIV-1 Env of strain TRO.11 (HIV-1)
[5] = target: HIV-1 Env of strain QH0692.42 (HIV-1)
[6] = target: HIV-1 Env of strain AC10.0.29 (HIV-1)
[7] = target: HIV-1 Env of strain T257-31 (HIV-1)
[8] = target: HIV-1 Env of strain ZM214M.PL15 (HIV-1)
[9] = target: HIV-1 Env of strain SC422661.8 (HIV-1)
[10] = target: HIV-1 Env of strain Du156.12 (HIV-1)
[11] = target: HIV-1 Env of strain ZM249M.PL1 (HIV-1)
[12] = target: HIV-1 Env of strain ZM135M.PL10a (HIV-1)
[13] = target: HIV-1 Env of strain ZM53M.PB12 (HIV-1)
[14] = target: HIV-1 Env of strain ZM214M.PL15 (HIV-1); remark: listed apart in the source
[15] = target: HIV-1 Env of strain ZM197M.PB7 (HIV-1)
[16] = target: HIV-1 Env of strain ZM109F.PB4 (HIV-1)
[17] = target: HIV-1 Env of strain CAP45.2.00.G3 (HIV-1); remark: listed apart in the source
[18] = target: HIV-1 Env of strain CAP210.2.00.E8 (HIV-1)
[19] = target: HIV-1 Env of strain Du172.17 (HIV-1)
[20] = target: HIV-1 Env of strain TRO.11 (HIV-1); remark: listed apart in the source
[21] = target: HIV-1 Env of strain AC10.0.29 (HIV-1); remark: listed apart in the source
[22] = target: HIV-1 Env of strain SC422661.8 (HIV-1); remark: listed apart in the source
[23] = target: HIV-1 Env of strain C3347.c11 (HIV-1)
[24] = target: HIV-1 Env of strain 1006_11_C3_1601 (HIV-1)
[25] = target: HIV-1 Env of strain 3415.v1.c1 (HIV-1)
[26] = target: HIV-1 Env of strain Du156.12 (HIV-1); remark: listed apart in the source
[27] = target: HIV-1 Env of strain REJO4541.67 (HIV-1)
[28] = target: HIV-1 Env of strain 3301.v1.c24 (HIV-1)
[29] = target: HIV-1 Env of strain Q769.d22 (HIV-1)
[30] = target: HIV-1 Env of strain WEAU_d15_410_787 (HIV-1)
[31] = target: HIV-1 Env of strain 6540.v4.cl (HIV-1)
[32] = target: HIV-1 Env of strain Du172.17 (HIV-1); remark: listed apart in the source
[33] = target: HIV-1 Env of strain CNE21 (HIV-1)
[34] = target: HIV-1 Env of strain C1080.c03 (HIV-1)
[35] = target: HIV-1 Env of strain CNE58 (HIV-1)
[36] = target: HIV-1 Env of strain CNE30 (HIV-1)
[37] = target: HIV-1 Env of strain X2131_C1_B5 (HIV-1)
[38] = target: HIV-1 Env of strain ZM53M.PB12 (HIV-1); remark: listed apart in the source
[39] = target: HIV-1 Env of strain PVO.4 (HIV-1)
[40] = target: HIV-1 Env of strain WITO4160.33 (HIV-1)
[41] = target: HIV-1 Env of strain Ce2060_G9 (HIV-1)
[42] = target: HIV-1 Env of strain Q259.d2.17 (HIV-1)
[43] = target: HIV-1 Env of strain 6811.v7.c18 (HIV-1)

B1: NIH45-46 IgG (antibody, V domains shown)
VH: QVRLSQSGGQMKKPGESMRLSCRASGYEFLNCPINWIRLAPGRRPEWMGWLKPRGGAVNYARKFQGRVTMTRDVYSDTAFLELRSLTSDDTAVYFCTRGKYCTARDYYNWDFEHWGRGAPVTVSS
VL: EIVLTQSPATLSLSPGETAIISCRTSQSGSLAWYQQRPGQAPRLVIYSGSTRAAGIPDRFSGSRWGADYNLSISNLESGDFGVYYCQQYEFFGQGTKVQVDI
neutralization IC50 [1]: > 30 µg/mL | neutralization IC50 [2]: 12.8 µg/mL | neutralization IC50 [3]: > 50 µg/mL | neutralization IC50 [4]: 1.9 µg/mL | neutralization IC50 [5]: 0.7 µg/mL | neutralization IC50 [6]: 0.9 µg/mL | neutralization IC50 [7]: 0.5 µg/mL | neutralization IC50 [8]: 0.3 µg/mL | neutralization IC50 [9]: 0.05 µg/mL | neutralization IC50 [10]: 0.01 µg/mL | neutralization IC50 [11]: 0.02 µg/mL | neutralization IC50 [12]: 0.36 µg/mL | neutralization IC50 [13]: 0.65 µg/mL | neutralization IC50 [14]: 0.05 µg/mL | neutralization IC50 [15]: 0.14 µg/mL | neutralization IC50 [16]: 0.22 µg/mL | neutralization IC50 [17]: > 50 µg/mL | neutralization IC50 [18]: > 50 µg/mL | neutralization IC50 [19]: > 50 µg/mL | neutralization IC50 [20]: 1 µg/mL | neutralization IC50 [21]: 0.9 µg/mL | neutralization IC50 [22]: 0.06 µg/mL | neutralization IC50 [23]: 0.029 µg/mL | neutralization IC50 [24]: 0.027 µg/mL | neutralization IC50 [25]: 0.022 µg/mL | neutralization IC50 [26]: 0.02 µg/mL | neutralization IC50 [27]: 0.014 µg/mL | neutralization IC50 [28]: 0.009 µg/mL | neutralization IC50 [29]: 0.009 µg/mL | neutralization IC50 [30]: 0.005 µg/mL | neutralization IC50 [31]: > 50 µg/mL | neutralization IC50 [32]: > 50 µg/mL | neutralization IC50 [33]: 6.01 µg/mL | neutralization IC50 [34]: 2.48 µg/mL | neutralization IC50 [35]: 0.43 µg/mL | neutralization IC50 [36]: 0.309 µg/mL | neutralization IC50 [37]: 0.23 µg/mL | neutralization IC50 [38]: 0.175 µg/mL | neutralization IC50 [39]: 0.12 µg/mL | neutralization IC50 [40]: 0.06 µg/mL | neutralization IC50 [41]: 0.058 µg/mL | neutralization IC50 [42]: 0.043 µg/mL | neutralization IC50 [43]: 0.035 µg/mL
